Test results from article PMC8611094.

Molecular target: T1, DHX36 (UniProt Q9H2U1)
T1 sequence (Q9H2U1 whole entry, looked up): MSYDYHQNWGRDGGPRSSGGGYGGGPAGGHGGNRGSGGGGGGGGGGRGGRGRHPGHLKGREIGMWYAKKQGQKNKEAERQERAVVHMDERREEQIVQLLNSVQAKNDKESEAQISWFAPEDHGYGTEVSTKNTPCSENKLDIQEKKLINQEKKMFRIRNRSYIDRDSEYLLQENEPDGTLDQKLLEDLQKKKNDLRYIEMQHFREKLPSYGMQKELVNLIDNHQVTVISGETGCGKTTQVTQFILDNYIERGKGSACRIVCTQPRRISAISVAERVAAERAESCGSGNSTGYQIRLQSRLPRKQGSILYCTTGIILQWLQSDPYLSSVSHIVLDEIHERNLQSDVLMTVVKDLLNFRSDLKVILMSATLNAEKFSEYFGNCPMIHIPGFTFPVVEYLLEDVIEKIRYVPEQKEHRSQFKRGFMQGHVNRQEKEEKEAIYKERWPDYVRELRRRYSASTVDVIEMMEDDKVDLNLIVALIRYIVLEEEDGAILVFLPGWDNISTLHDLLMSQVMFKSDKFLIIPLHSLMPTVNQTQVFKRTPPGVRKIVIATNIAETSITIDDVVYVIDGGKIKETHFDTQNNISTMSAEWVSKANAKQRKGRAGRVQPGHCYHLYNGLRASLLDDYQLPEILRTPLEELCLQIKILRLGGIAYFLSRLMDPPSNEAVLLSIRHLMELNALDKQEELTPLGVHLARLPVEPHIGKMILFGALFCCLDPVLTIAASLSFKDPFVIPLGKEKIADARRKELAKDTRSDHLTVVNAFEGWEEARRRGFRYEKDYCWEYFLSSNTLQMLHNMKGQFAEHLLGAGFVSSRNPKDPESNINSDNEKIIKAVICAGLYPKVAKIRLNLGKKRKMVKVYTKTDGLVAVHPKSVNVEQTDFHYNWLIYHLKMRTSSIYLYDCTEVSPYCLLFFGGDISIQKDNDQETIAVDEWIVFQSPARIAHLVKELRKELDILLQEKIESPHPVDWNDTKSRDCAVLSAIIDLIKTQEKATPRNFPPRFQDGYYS
Experiment: ELISA
Settings: ELISA performed as in Zyner et al. (ref 43); buffer, salt, pH and temperature not given in the material

UGUGGGAGGGGCGGGUCUGGGUGC [NRAS G4] gave a Kd of 0.9 nM.
